From patent publication US12559545 (VANDERBILT UNIVERSITY, dated 2026)

Assays:
[1] = target: full-length NiVB-RBP expressed on the surface of transfected cells (Nipah virus, strain Bangladesh, UniProt Q9IH62 182-602)
[2] = target: T1, full-length NiVM-RBP expressed on the surface of transfected cells (Nipah virus, strain Malaysia, UniProt Q9IH62 182-602)
T1 sequence: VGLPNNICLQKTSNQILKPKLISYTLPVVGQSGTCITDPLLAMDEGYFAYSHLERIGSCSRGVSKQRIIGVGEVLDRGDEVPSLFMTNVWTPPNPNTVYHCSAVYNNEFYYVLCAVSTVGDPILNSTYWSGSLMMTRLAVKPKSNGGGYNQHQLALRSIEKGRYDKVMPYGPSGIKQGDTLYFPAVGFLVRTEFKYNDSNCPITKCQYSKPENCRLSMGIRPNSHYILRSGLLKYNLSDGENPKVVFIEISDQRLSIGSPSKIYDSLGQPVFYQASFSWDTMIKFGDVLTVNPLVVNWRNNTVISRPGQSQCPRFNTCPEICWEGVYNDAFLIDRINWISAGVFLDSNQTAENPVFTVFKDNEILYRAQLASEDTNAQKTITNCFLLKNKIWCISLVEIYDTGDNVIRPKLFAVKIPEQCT

[3] = target: T2, full-length HeV-RBP expressed on the surface of transfected cells (Hendra virus, UniProt O89343 182-603)
T2 sequence: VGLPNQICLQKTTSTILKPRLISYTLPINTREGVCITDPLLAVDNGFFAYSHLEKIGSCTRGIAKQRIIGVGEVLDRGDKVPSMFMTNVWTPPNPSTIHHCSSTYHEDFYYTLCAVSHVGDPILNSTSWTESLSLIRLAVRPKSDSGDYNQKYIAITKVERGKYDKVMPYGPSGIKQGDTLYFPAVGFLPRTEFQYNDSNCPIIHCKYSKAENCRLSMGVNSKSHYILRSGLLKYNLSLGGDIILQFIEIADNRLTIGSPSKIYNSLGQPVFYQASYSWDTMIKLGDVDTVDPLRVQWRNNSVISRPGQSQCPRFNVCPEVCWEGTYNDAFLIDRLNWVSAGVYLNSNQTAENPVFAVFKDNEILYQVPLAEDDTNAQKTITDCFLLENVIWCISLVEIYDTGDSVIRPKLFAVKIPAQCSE

[4] = target: T3, HeV-RBP head domain (residues 185-604), recombinant soluble (Hendra virus, UniProt O89343 185-603); assay: ELISA, RBP head domain coated on plate, hybridoma IgG
T3 sequence: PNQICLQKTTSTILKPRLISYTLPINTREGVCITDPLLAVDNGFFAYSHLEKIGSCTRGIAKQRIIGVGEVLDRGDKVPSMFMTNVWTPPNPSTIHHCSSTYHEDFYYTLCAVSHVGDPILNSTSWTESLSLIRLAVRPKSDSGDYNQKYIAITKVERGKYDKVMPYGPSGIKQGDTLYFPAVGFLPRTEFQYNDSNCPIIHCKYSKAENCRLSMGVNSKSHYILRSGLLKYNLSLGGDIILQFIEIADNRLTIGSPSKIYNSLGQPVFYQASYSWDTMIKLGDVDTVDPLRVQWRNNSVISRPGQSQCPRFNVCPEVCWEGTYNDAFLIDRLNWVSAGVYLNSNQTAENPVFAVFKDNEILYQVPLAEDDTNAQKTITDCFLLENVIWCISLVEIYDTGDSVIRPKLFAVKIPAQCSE

[5] = target: T4, NiVB-RBP head domain (residues 185-602), recombinant soluble (Nipah virus, strain Bangladesh, UniProt Q9IH62 185-602); assay: as above
[6] = target: T5, NiVM-RBP head domain (residues 183-602), recombinant soluble (Nipah virus, strain Malaysia, UniProt Q9IH62 183-602); assay: as above
T5 sequence: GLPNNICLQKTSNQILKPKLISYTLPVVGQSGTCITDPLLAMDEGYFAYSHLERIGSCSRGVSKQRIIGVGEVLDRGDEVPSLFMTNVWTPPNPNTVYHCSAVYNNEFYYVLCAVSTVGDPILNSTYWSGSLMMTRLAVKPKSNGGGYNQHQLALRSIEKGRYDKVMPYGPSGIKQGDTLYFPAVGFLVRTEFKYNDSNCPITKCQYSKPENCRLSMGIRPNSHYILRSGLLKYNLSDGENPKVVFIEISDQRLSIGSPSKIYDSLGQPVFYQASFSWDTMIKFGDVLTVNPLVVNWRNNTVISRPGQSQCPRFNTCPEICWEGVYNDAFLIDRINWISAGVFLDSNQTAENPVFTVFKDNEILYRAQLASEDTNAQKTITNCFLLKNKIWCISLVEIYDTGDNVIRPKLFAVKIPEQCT

[7] = target: T6, HeV RBP on live Hendra virus (Hendra virus, UniProt O89343 182-603); assay: cell-based or functional assay
T6 sequence: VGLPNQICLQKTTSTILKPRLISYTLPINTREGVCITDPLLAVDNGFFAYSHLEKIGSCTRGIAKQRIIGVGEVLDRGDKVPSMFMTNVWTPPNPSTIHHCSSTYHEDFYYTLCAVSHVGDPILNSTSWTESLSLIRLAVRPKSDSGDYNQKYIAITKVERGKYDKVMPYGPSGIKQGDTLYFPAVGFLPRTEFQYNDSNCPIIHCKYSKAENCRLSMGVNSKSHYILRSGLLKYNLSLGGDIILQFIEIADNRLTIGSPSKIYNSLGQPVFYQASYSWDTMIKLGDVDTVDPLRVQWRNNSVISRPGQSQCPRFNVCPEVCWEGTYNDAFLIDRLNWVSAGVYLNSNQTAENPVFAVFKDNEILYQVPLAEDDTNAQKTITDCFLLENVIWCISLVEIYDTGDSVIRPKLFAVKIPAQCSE

[8] = target: NiVB RBP on live Nipah virus Bangladesh (Nipah virus, strain Bangladesh, UniProt Q9IH62 182-602); assay: cell-based or functional assay
[9] = target: T3, HeV-RBP head domain (residues 185-604), …
[10] = target: T4, NiVB-RBP head domain (residues …)
[11] = target: T5, NiVM-RBP head domain (residues …)

B1: HENV-32 (antibody, V domains shown)
VH: QVQLVQSGAEVKKPGSSVKVSCKVSGGIFNRETINWVRQAPGQGLEWMGRITPIVDVPNYPRKFRGRVTITADKSTSTVYMELSGLRFEDTAIYFCARFRGHNYFDPWGQGTLVTVSS
VL: SYVLTQPPSVSVAPGQTARITCGGNNIGGKSVHWYQQKPGQAPVLVVYDDRDRPSGIPERFSGSNSGDTASLTISRVDAGDEADYFCQVWDNASDEAVFGGGTKLTVL
EC50 [1]: 0.836 µg/mL | EC50 [2]: 0.76 µg/mL | EC50 [3]: 0.68 µg/mL | Area under the curve [4]: 3.71 | EC50 [4]: 0.36 µg/mL | Area under the curve [5]: 6.6 | EC50 [5]: 0.96 µg/mL | Area under the curve [6]: 8 | EC50 [6]: 0.42 µg/mL | IC50, plaque reduction neutralization of live virus [7]: 0.27 µg/mL | IC50, plaque reduction neutralization of live virus [8]: 0.38 µg/mL

B2: HENV-32 Fab (Fab, V domains shown)
VH: QVQLVQSGAEVKKPGSSVKVSCKVSGGIFNRETINWVRQAPGQGLEWMGRITPIVDVPNYPRKFRGRVTITADKSTSTVYMELSGLRFEDTAIYFCARFRGHNYFDPWGQGTLVTVSS
VL: SYVLTQPPSVSVAPGQTARITCGGNNIGGKSVHWYQQKPGQAPVLVVYDDRDRPSGIPERFSGSNSGDTASLTISRVDAGDEADYFCQVWDNASDEAVFGGGTKLTVL
Kd [9]: 2.1 nM | Kd [10]: 2.8 nM | Kd [11]: 2.2 nM
